Measured values published in the supplement of paper PMC7125110.
± gives the standard error. For part of these data: Variants at the floor of the assay were thinned out.

B1: glmS ribozyme (parent)
chain: AUAAAAGCGCCAGAACUACAGAAAUGUAGUUGACGAGGAGGAGGUUUAUCGAAUUUUCGGCGGAUGCCUCCAAA

Tests used:
Settings in all cases: with glucosamine-6-phosphate
glucosamine-6-phosphate [1] = variants of: B1; assay: kcat; higher = faster cleavage; RNA array
Outline: (§1)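 Barcoded ribozyme variants were transcribed in situ on sequenced MiSeq chips by E. coli RNA polymerase. At 37 °C, a hybridised Cy3 probe tracked them while glucosamine-6-phosphate (40 μM to 10 mM) in HEPES/KCl/Mg(OAc)2 buffer flowed in and tiles were imaged over ~14 h. Per-tile medians of signals normalised to baseline and to non-cleaving reference variants were fit to one- or two-exponential decays, giving kobs. kcat and KM came from weighted Michaelis–Menten fits across concentrations.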

glucosamine-6-phosphate [2] = variants of: B1; assay: KM; higher = weaker cofactor use; RNA array
Outline: as §1

glucosamine-6-phosphate [3] = variants of: B1; assay: self-cleavage kobs at 640 uM GlcN6P; higher = faster cleavage; RNA array
Outline: as §1

glucosamine-6-phosphate [4] = variants of: B1; assay: self-cleavage kobs at 2500 uM GlcN6P; higher = faster cleavage; RNA array
Outline: as §1

glucosamine-6-phosphate [5] = variants of: B1; assay: self-cleavage kobs at 10000 uM GlcN6P; higher = faster cleavage; RNA array
Outline: as §1

glucosamine-6-phosphate [6] = variants of: B1; assay: self-cleavage kobs at 160 uM GlcN6P; higher = faster cleavage; RNA array
Outline: as §1

glucosamine-6-phosphate [7] = variants of: B1; assay: self-cleavage kobs at 40 uM GlcN6P; higher = faster cleavage; RNA array
Outline: as §1

Variant | kcat (glucosamine-6-phosphate [1]) [s⁻¹] | KM (glucosamine-6-phosphate [2]) [µM] | self-cleavage kobs at 640 uM GlcN6P (glucosamine-6-phosphate [3]) [s⁻¹] | self-cleavage kobs at 2500 uM GlcN6P (glucosamine-6-phosphate [4]) [s⁻¹] | self-cleavage kobs at 10000 uM GlcN6P (glucosamine-6-phosphate [5]) [s⁻¹] | self-cleavage kobs at 160 uM GlcN6P (glucosamine-6-phosphate [6]) [s⁻¹] | self-cleavage kobs at 40 uM GlcN6P (glucosamine-6-phosphate [7]) [s⁻¹]
C58G C71U | 7.95e-05 ± 3.4e-06 | 402 ± 99 | 4.63e-05 ± 1.1e-05 | 7.26e-05 ± 8.7e-06 | 7.36e-05 ± 9e-06 |  | 
C16A U46G C70G | 2.12e-05 ± 3.1e-06 |  |  |  |  |  | 
A53U U56C C71U | 0.00121 ± 0.00019 | 4240 ± 1000 |  | 0.000406 ± 9.1e-05 | 0.000903 ± 0.0002 | 4.8e-05 ± 1.3e-05 | 
A12C G43U | 5.32e-05 ± 9.5e-07 | 1200 ± 86 |  | 3.6e-05 ± 8e-06 | 4.74e-05 ± 9.2e-06 |  | 
U54C C68A | 2.49e-05 ± 6.3e-06 |  |  |  |  |  | < 1e-05
A12G U31A G32U | 6.44e-05 ± 1.1e-06 | 5790 ± 240 |  |  | 4.08e-05 ± 1.1e-05 |  | 
U31C G41A | 9.11e-05 ± 9.7e-06 |  | 6.76e-05 ± 1.5e-05 | 9.23e-05 ± 1.6e-05 | 8.13e-05 ± 1.2e-05 |  | 
G44A U55A | 0.000528 ± 5e-05 | 2150 ± 420 | 0.000113 ± 2.3e-05 | 0.000286 ± 6.8e-05 | 0.000437 ± 6.1e-05 | 5.44e-05 ± 2.2e-05 | 
A15U U45G | 0.000918 ± 0.00015 | 2150 ± 560 | 0.000248 ± 3.2e-05 | 0.000552 ± 8.4e-05 | 0.000705 ± 9.6e-05 | 5.29e-05 ± 1e-05 | 
C10U A14C | < 1e-05 |  |  |  |  |  | < 1e-05
G59U | 5.77e-05 ± 1.4e-06 | 1210 ± 130 | 1.83e-05 ± 1.7e-06 | 4.03e-05 ± 1.3e-06 | 5.11e-05 ± 9.9e-07 |  | < 1e-05
A15C C16A C68G | 2.65e-05 ± 7.2e-06 |  |  | 2.94e-05 ± 1.3e-05 |  |  | 
A48G C67A | 7.17e-05 ± 2.1e-06 |  |  |  | 3.47e-05 ± 1.2e-05 | < 1e-05 | 
G29A A48U | 0.000327 ± 8.3e-05 |  |  |  | 2.73e-05 ± 1.1e-05 |  | 
A15C G40A | 0.000642 ± 0.00018 | 1860 ± 840 | 0.000149 ± 2e-05 | 0.000365 ± 7.3e-05 | 0.000584 ± 0.00012 | 8.81e-05 ± 2.4e-05 | 2.42e-05 ± 9.8e-06
A15C G40C | 0.000353 ± 6.6e-05 | 1230 ± 420 | 0.000109 ± 9.3e-06 | 0.000234 ± 2.4e-05 | 0.000343 ± 3.9e-05 | 5.62e-05 ± 7.5e-06 | 
C11U U56A C70U | 0.00048 ± 0.00011 |  | 0.000508 ± 0.00011 | 0.000485 ± 0.00013 | 0.000416 ± 6.3e-05 |  | 3.04e-05 ± 9.5e-06
A15U G35A | < 1e-05 |  |  |  | < 1e-05 |  | < 1e-05

Variant | kcat (glucosamine-6-phosphate [1]) [s⁻¹] | KM (glucosamine-6-phosphate [2]) [µM] | self-cleavage kobs at 640 uM GlcN6P (glucosamine-6-phosphate [3]) [s⁻¹] | self-cleavage kobs at 2500 uM GlcN6P (glucosamine-6-phosphate [4]) [s⁻¹] | self-cleavage kobs at 10000 uM GlcN6P (glucosamine-6-phosphate [5]) [s⁻¹] | self-cleavage kobs at 160 uM GlcN6P (glucosamine-6-phosphate [6]) [s⁻¹] | self-cleavage kobs at 40 uM GlcN6P (glucosamine-6-phosphate [7]) [s⁻¹]
C16A G66A | 0.00167 ± 9.1e-05 | 4130 ± 370 | 0.000223 ± 5e-05 | 0.000633 ± 0.00013 | 0.00118 ± 0.00018 | 6.8e-05 ± 3.1e-05 | 
A39C U69C | 0.000195 ± 3.5e-05 |  | 6.94e-05 ± 1.8e-05 | 0.000211 ± 3.5e-05 | 0.000166 ± 1.9e-05 |  | 
A6U A14G | 0.000657 ± 7.8e-05 | 2280 ± 480 | 0.000135 ± 2.3e-05 | 0.000414 ± 8.3e-05 | 0.000513 ± 8.4e-05 | 4.93e-05 ± 2.3e-05 | 
C8U C50G | 0.000208 ± 1.2e-05 | 31 ± 8 | 0.000188 ± 3.3e-05 | 0.000229 ± 3.5e-05 | 0.000178 ± 7.7e-05 | 0.000167 ± 2.4e-05 | 0.00012 ± 2e-05
A6G A12G | 1.13e-05 ± 1.3e-06 |  |  |  |  |  | 
G9A A12C | < 1e-05 |  | < 1e-05 |  |  |  | 
A39U A53C | 0.00528 ± 0.0015 | 2890 ± 1100 | 0.000759 ± 8.9e-05 | 0.00228 ± 0.00027 | 0.00454 ± 0.00047 | 0.000314 ± 4.2e-05 | 9.69e-05 ± 1.1e-05
A12C U49G | 0.000332 ± 1.7e-05 | 1730 ± 210 | 8.81e-05 ± 2e-05 | 0.000216 ± 9.7e-05 | 0.000282 ± 4e-05 |  | 
A14G U45C | 0.00289 ± 0.0011 |  | 0.00149 ± 0.00031 | 0.00215 ± 0.00057 |  | 0.000403 ± 9.2e-05 | 0.000196 ± 4.6e-05
A14G G59U | 0.000386 ± 9.6e-05 | 9330 ± 3800 | 1.71e-05 ± 8e-06 | 9.37e-05 ± 1.5e-05 | 0.000196 ± 2.2e-05 |  | 
U55G C68G | 9.78e-05 ± 1e-05 | 345 ± 170 | 6.54e-05 ± 1.3e-05 | 7.64e-05 ± 1.5e-05 | 0.000104 ± 1.7e-05 |  | 
U30C G37C C70U | 1.63e-05 ± 2e-06 |  |  |  |  |  | 
A52C U57C | 3.44e-05 ± 6.5e-06 |  |  | 4.64e-05 ± 1.6e-05 | 2.95e-05 ± 1e-05 |  | 
U47G C50U | 3.97e-05 ± 1.6e-06 | 433 ± 100 |  | 3.64e-05 ± 1.5e-05 | 3.69e-05 ± 1.2e-05 |  | 
A33C C50A | < 1e-05 |  |  |  |  |  | 
U46A U56A | 0.001 ± 0.00013 | 1800 ± 490 | 0.000307 ± 7e-05 | 0.000533 ± 0.00015 | 0.000853 ± 0.00014 |  | 
C50A A53G | 2.89e-05 ± 3e-06 |  |  | 3.53e-05 ± 1.5e-05 | 2.62e-05 ± 9.1e-06 |  | 
A39G G44C | 0.000507 ± 6.5e-05 | 2450 ± 660 | 0.000101 ± 1.9e-05 | 0.000327 ± 6.4e-05 | 0.000394 ± 4.8e-05 |  | 
